From article PMC314469, “Protein Interaction Networks by Proteome Peptide Scanning” (PLoS Biology, 2004) come the findings set out here.

To fix the notation:
T1: Abp1 SH3 (ABP1_YEAST), P15891
T1 chain: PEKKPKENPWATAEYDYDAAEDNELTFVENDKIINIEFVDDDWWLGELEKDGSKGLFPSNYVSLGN

The assay has as its target T1, Abp1 SH3 (ABP1_YEAST), P15891. Briefly: SPOT array.
As to LLHQYDDPLMFKP [YDL180W 44-56], the normalised SPOT signal, Boehringer light units (BLU); mean over the file's lines of this peptide is 19.6.
As for LNLIGRRSASPYRP [YDL033C 6-19], the figure is 144; as for LSQLKRFERSPGRP [YFL007W 20-33], 524; as for LLKKGVNPKAKRP [YNL061W 602-614], 54.3.
In turn, LQVHRDQPREKRP [YDR176W 173-185] displayed a normalised SPOT signal, Boehringer light units (BLU); mean over the file's lines of this peptide of 140.
With LPQDYYDPSFMRP [YIL108W 388-400], the normalised SPOT signal, Boehringer light units (BLU); mean over the file's lines of this peptide stood at 153.
As for LQSQFFDSMSPVRP [YGL003C 218-231], the figure is 67.6; as for LNSSVVVPKTTKP [YIL168W 85-97], 114.
As for LSRKESKFGTPEKP [YBL052C 441-454], the figure is 75.9; as for LSLNKAFEKVPRRP [YNL068C 392-405], 854; as for LMMPVMVPTVYKP [YPR013C 154-166], 188.
As for LKYFGKALENPTRP [YCR012W 192-205], the figure is 117; as for LNDSMFFPYPFKP [YGL131C 434-446], 50.6; as for LSTVNPAPANRKP [YJL005W 199-211], 171.
LTTNKETPANAKP [YAR044W 406-418] returned a normalised SPOT signal, Boehringer light units (BLU); mean over the file's lines of this peptide of 111.
Molecule LQHAAEPPVEKRP [YDR174W 207-219] returned a normalised SPOT signal, Boehringer light units (BLU); mean over the file's lines of this peptide of 54.2.
As for LSKKENKVGSPEKP [YOR244W 327-340], the figure is 32.6; as for LNDPTATPFTSRP [YNL091W 1210-1222], 130; as for LSHRLWLYAAPKRP [YMR156C 126-139], 171.
As for LLQQQRVDVVPPKP [YML113W 123-136], the figure is 140.
With LLRLRPRPLLLRP [YKR047W 79-91], the normalised SPOT signal, Boehringer light units (BLU); mean over the file's lines of this peptide is 249.
As for LLRRNPSPSIVKP [YFL021W 256-268], the figure is 1070.
As for LQEDLHDPLEFKP [YKL105C 259-271], the figure is 74.4.
The same measure for LTFANVSFSYPSRP [YKL209C 357-370]: 100.
As to LVSIENAPVSLRP [YGR031W 172-184], the normalised SPOT signal, Boehringer light units (BLU); mean over the file's lines of this peptide is 59.6.
For the molecule LTLWSQPPDVLKP [YLL031C 923-935], the normalised SPOT signal, Boehringer light units (BLU); mean over the file's lines of this peptide came out at 104.
In the case of LTNLIRNPRFSKP [YHR168W 311-323], the normalised SPOT signal, Boehringer light units (BLU); mean over the file's lines of this peptide amounted to 631.
The same measure for LSKVRGRPMYPRP [YBR083W 422-434]: 382.
The same measure for LQQEQNTPPLPPKP [YCL008C 171-184]: 82.6.
In turn, LNVSAPVVADPTRP [YNR014W 72-85] registered a normalised SPOT signal, Boehringer light units (BLU); mean over the file's lines of this peptide of 156.
In the case of LLQEDSRIMPPLKP [YBR133C 322-335], the normalised SPOT signal, Boehringer light units (BLU); mean over the file's lines of this peptide was found to be 185.
As for LQKKNDRPSPLKP [YKL101W 858-870], the figure is 450.
The same measure for LRLKKSPLKVPSRP [YOR081C 655-668]: 452; for LQELKFSPVINKP [YLR022C 137-149]: 66; for LRQEYSFSLDPDRP [YPR107C 19-32]: 144.
In turn, LQPQNQAPLEPLKP [YIR006C 225-238] returned a normalised SPOT signal, Boehringer light units (BLU); mean over the file's lines of this peptide of 25.4.
The same measure for LKPENILLSAPDKP [YJL141C 497-510]: 7.9; for LKKTLKKKKTPKKP [YKR084C 74-87]: 163.
For LSYYLAISTNPGRP [YOL003C 52-65], the normalised SPOT signal, Boehringer light units (BLU); mean over the file's lines of this peptide amounted to 40.5.
As for LLRENTTILDPSKP [YKR056W 387-400], the figure is 177; as for LKLSNISHHSPVKP [YBR050C 283-296], 103; as for LTEITKLPNITRP [YLR152C 193-205], 150.
The same measure for LLEAIDAIEQPSRP [YBR118W 226-239]: 41.3; for LLPPPPPPPYQRP [YPL063W 179-191]: 111; for LKSFFTNPNKKRP [YOR098C 23-35]: 323.
The same measure for LKSLNLPQLPPPKP [YDR266C 568-581]: 40.9; for LTSGGSLPVSPRP [YOL061W 323-335]: 60; for LNALNVNSHAPTKP [YOR059C 245-258]: 171.
As to LTSLPVPPPPVRP [YDL140C 236-248], the normalised SPOT signal, Boehringer light units (BLU); mean over the file's lines of this peptide worked out at 68.5.
As for LNNLLAPPLSPTKP [YDR425W 249-262], the figure is 79.6.
As for LLSKVHDPNIPLRP [YGR184C 639-652], the figure is 135; as for LNLQHQLEYWPHRP [YLR436C 877-890], 97.9; as for LSKNWELPQRLKP [YOL028C 50-62], 1040.
The same measure for LRNTTTYKSRPDRP [YBR289W 754-767]: 273.
